Experimental data published in patent US7375083B2, “Pharmaceutical compositions for prevention of overdose or abuse” (Shire LLC, priority 2003, dated 2008).
Where a SMILES comes first, the peptide text is derived from it. The star is where a group is joined. X1 = COc1ccc2c3c1O[C@H]1C(O*)=CC[C@H]4[C@@H](C2)N(C)CC[C@]314

Test: Oral bioavailability of hydrocodone conjugates in rats, LC/MS/MS
Details: for AUC (ng/ml h) 0-8 h / Cmax: hydrocodone plus hydromorphone; for Percent HC (AUC) / Percent HC (Cmax): relative to hydrocodone bitartrate; for Percent HC + HM (AUC) / Percent HC + HM (Cmax): relative to parameter following hydrocodone bitartrate
[1] = oral, 1 mg/kg hydrocodone base content
[2] = oral, 1 mg/kg hydrocodone base content, 0 h
[3] = oral, 1 mg/kg hydrocodone base content, 0.1 h
[4] = oral, 1 mg/kg hydrocodone base content, 1.0 h
[5] = oral, 1 mg/kg hydrocodone base content, 2.0 h
[6] = oral, 1 mg/kg hydrocodone base content, 4.0 h
[7] = oral, 2 mg/kg hydrocodone base content
[8] = oral, 2 mg/kg hydrocodone base content, 0 h
[9] = oral, 2 mg/kg hydrocodone base content, 0.1 h
[10] = oral, 2 mg/kg hydrocodone base content, 0.5 h
[11] = oral, 2 mg/kg hydrocodone base content, 1.0 h
[12] = oral, 2 mg/kg hydrocodone base content, 2.0 h
[13] = oral, 2 mg/kg hydrocodone base content, 4.0 h
[14] = oral, 5 mg/kg hydrocodone base content
[15] = oral, 5 mg/kg hydrocodone base content, 0 h
[16] = oral, 5 mg/kg hydrocodone base content, 0.1 h
[17] = oral, 5 mg/kg hydrocodone base content, 0.5 h
[18] = oral, 5 mg/kg hydrocodone base content, 1.0 h
[19] = oral, 5 mg/kg hydrocodone base content, 2.0 h
[20] = oral, 5 mg/kg hydrocodone base content, 4.0 h
[21] = oral, 25 mg/kg hydrocodone base content
[22] = oral, 25 mg/kg hydrocodone base content, 0 h
[23] = oral, 25 mg/kg hydrocodone base content, 0.1 h
[24] = oral, 25 mg/kg hydrocodone base content, 0.5 h
[25] = oral, 25 mg/kg hydrocodone base content, 1.0 h
[26] = oral, 25 mg/kg hydrocodone base content, 2.0 h
[27] = oral, 25 mg/kg hydrocodone base content, 4.0 h

In the case of `CC[C@H](C)[C@H](NC(=O)[C@H](Cc1ccccc1)NC(=O)[C@H](Cc1ccccc1)NC(=O)[C@H](Cc1ccc(O)cc1)NC(=O)[C@@H](N)Cc1ccc(O)cc1)C(=O)OC1=CC[C@H]2[C@H]3Cc4ccc(OC)c5c4[C@@]2(CCN3C)[C@H]1O5` [YYFFI[SEQ ID NO: 8]-HC, Tyr-Tyr-Phe-Phe-Ile[SEQ ID NO: 8]-(6-O)-Hydrocodone] (H-YYFFI-X1), the “Percent Decrease 1 mg/kg vs. 5 mg/kg AUC” value (oral bioavailability) is reported as 15%, the “Percent Decrease 1 mg/kg vs. 5 mg/kg Cmax” value (oral bioavailability) is reported as 23% and the “hydrocodone plus hydromorphone concentration” value (oral, 1 mg/kg dose, 0.5 Hours) is reported as 7 ng/mL. The “hydrocodone plus hydromorphone concentration” value (oral, 1 mg/kg dose, 1.0 Hours) was 3.7 ng/mL, the “hydrocodone plus hydromorphone concentration” value (oral, 1 mg/kg dose, 1.5 Hours) was 4.3 ng/mL and the “hydrocodone plus hydromorphone concentration” value (oral, 1 mg/kg dose, 3 Hours) was 1.4 ng/mL. For the same compound, the “hydrocodone plus hydromorphone concentration” value (oral, 1 mg/kg dose, 5 Hours) was 1.1 ng/mL, the “hydrocodone plus hydromorphone concentration” value (oral, 1 mg/kg dose, 8 Hours) was 0 ng/mL and the “AUC (ng/ml h) 0-8 h” value (oral, 1 mg/kg dose) was 14.9 ng·h/mL. For the same compound, the Cmax (oral, 1 mg/kg dose) was 7 ng/mL, the “Percent HC (AUC)” value (oral, 1 mg/kg dose) was 110% and the “Percent HC (Cmax)” value (oral, 1 mg/kg dose) was 81%. For the same compound, the “Hydrocodone AUC” value [1] was 26.3, the “Hydrocodone Cmax” value [1] was 20.3 ng/mL and the “Hydrocodone plus hydromorphone AUC, Percent HC relative to hydrocodone bitartrate” value [1] was 64%. For the same compound, the “Hydrocodone plus hydromorphone Cmax” value [1] was 20.8 ng/mL, the “Hydrocodone plus hydromorphone Cmax, Percent HC relative to hydrocodone bitartrate” value [1] was 18% and the “Hydromorphone AUC, Percent HM relative to hydrocodone bitartrate” value [1] was 97%. For the same compound, the “Hydromorphone Cmax” value [1] was 2.9 ng/mL, the “Hydromorphone Cmax, Percent HM relative to hydrocodone bitartrate” value [1] was 89% and the “Mean hydrocodone plus hydromorphone concentration” value [2] was 0 ng/mL. The Mean hydromorphone concentration [2] was 0 ng/mL, the Mean hydrocodone concentration (oral, 1 mg/kg hydrocodone base content, 0 Hours) was 0 ng/mL and the Mean hydrocodone concentration (oral, 1 mg/kg hydrocodone base content, 0.1 Hours) was 20.3 ng/mL. For the same compound, the Mean hydrocodone concentration (oral, 1 mg/kg hydrocodone base content, 0.5 Hours) was 17.9 ng/mL, the Mean hydrocodone concentration (oral, 1 mg/kg hydrocodone base content, 1.0 Hours) was 10.4 ng/mL and the Mean hydrocodone concentration (oral, 1 mg/kg hydrocodone base content, 2.0 Hours) was 2.8 ng/mL. For the same compound, the Mean hydrocodone concentration (oral, 1 mg/kg hydrocodone base content, 4.0 Hours) was 1.2 ng/mL, the “Mean hydrocodone plus hydromorphone concentration” value [3] was 20.6 ng/mL and the Mean hydromorphone concentration [3] was 0.27 ng/mL. The Mean hydromorphone concentration (oral, 1 mg/kg hydrocodone base content, 0.5 h) was 2.87 ng/mL, the “Mean hydrocodone plus hydromorphone concentration” value [4] was 12.8 ng/mL and the Mean hydromorphone concentration [4] was 2.39 ng/mL. For the same compound, the “Mean hydrocodone plus hydromorphone concentration” value [5] was 5.0 ng/mL, the Mean hydromorphone concentration [5] was 2.24 ng/mL and the “Mean hydrocodone plus hydromorphone concentration” value [6] was 2.2 ng/mL. The Mean hydromorphone concentration [6] was 1.02 ng/mL, the “Percent HC + HM (AUC)” value (oral, 1 mg/kg) was 58% and the “Percent HC + HM (Cmax)” value (oral, 1 mg/kg) was 18%. For the same compound, the “Hydrocodone AUC” value [7] was 48, the “Hydrocodone Cmax” value [7] was 35.2 ng/mL and the “Hydrocodone plus hydromorphone AUC, Percent HC relative to hydrocodone bitartrate” value [7] was 103%. For the same compound, the “Hydrocodone plus hydromorphone Cmax” value [7] was 36.3 ng/mL, the “Hydrocodone plus hydromorphone Cmax, Percent HC relative to hydrocodone bitartrate” value [7] was 53% and the “Hydromorphone AUC, Percent HM relative to hydrocodone bitartrate” value [7] was 61%. The “Hydromorphone Cmax” value [7] was 8.7 ng/mL, the “Hydromorphone Cmax, Percent HM relative to hydrocodone bitartrate” value [7] was 48% and the “Mean hydrocodone plus hydromorphone concentration” value [8] was 0 ng/mL. The Mean hydromorphone concentration [8] was 0 ng/mL, the Mean hydrocodone concentration (oral, 2 mg/kg hydrocodone base content, 0 Hours) was 0 ng/mL and the Mean hydrocodone concentration (oral, 2 mg/kg hydrocodone base content, 0.1 Hours) was 35.2 ng/mL. For the same compound, the Mean hydrocodone concentration (oral, 2 mg/kg hydrocodone base content, 0.5 Hours) was 23 ng/mL, the Mean hydrocodone concentration (oral, 2 mg/kg hydrocodone base content, 1.0 Hours) was 14.4 ng/mL and the Mean hydrocodone concentration (oral, 2 mg/kg hydrocodone base content, 2.0 Hours) was 9.8 ng/mL. The Mean hydrocodone concentration (oral, 2 mg/kg hydrocodone base content, 4.0 Hours) was 3.3 ng/mL, the “Mean hydrocodone plus hydromorphone concentration” value [9] was 36.3 ng/mL and the Mean hydromorphone concentration [9] was 1.13 ng/mL. The “Mean hydrocodone plus hydromorphone concentration” value [10] was 31.7 ng/mL, the Mean hydromorphone concentration [10] was 8.74 ng/mL and the “Mean hydrocodone plus hydromorphone concentration” value [11] was 18.0 ng/mL. For the same compound, the Mean hydromorphone concentration [11] was 3.63 ng/mL, the “Mean hydrocodone plus hydromorphone concentration” value [12] was 13.2 ng/mL and the Mean hydromorphone concentration [12] was 3.41 ng/mL. For the same compound, the “Mean hydrocodone plus hydromorphone concentration” value [13] was 4.2 ng/mL, the Mean hydromorphone concentration [13] was 0.88 ng/mL and the “Percent HC + HM (AUC)” value (oral, 2 mg/kg) was 126%. The “Percent HC + HM (Cmax)” value (oral, 2 mg/kg) was 58%, the “hydrocodone plus hydromorphone concentration” value (oral, 5 mg/kg dose, 0.5 Hours) was 46 ng/mL and the “hydrocodone plus hydromorphone concentration” value (oral, 5 mg/kg dose, 1.0 Hours) was 33 ng/mL. The “hydrocodone plus hydromorphone concentration” value (oral, 5 mg/kg dose, 1.5 Hours) was 34 ng/mL, the “hydrocodone plus hydromorphone concentration” value (oral, 5 mg/kg dose, 3 Hours) was 13 ng/mL and the “hydrocodone plus hydromorphone concentration” value (oral, 5 mg/kg dose, 5 Hours) was 8.3 ng/mL. For the same compound, the “hydrocodone plus hydromorphone concentration” value (oral, 5 mg/kg dose, 8 Hours) was 4.5 ng/mL, the “AUC (ng/ml h) 0-8 h” value (oral, 5 mg/kg dose) was 105 ng·h/mL and the Cmax (oral, 5 mg/kg dose) was 46 ng/mL. For the same compound, the “Percent HC (AUC)” value (oral, 5 mg/kg dose) was 86%, the “Percent HC (Cmax)” value (oral, 5 mg/kg dose) was 63% and the “Hydrocodone AUC” value [14] was 47. For the same compound, the “Hydrocodone Cmax” value [14] was 26.6 ng/mL, the “Hydrocodone plus hydromorphone Cmax” value [14] was 32.9 ng/mL and the “Hydromorphone AUC, Percent HM relative to hydrocodone bitartrate” value [14] was 51%. For the same compound, the “Hydromorphone Cmax” value [14] was 10.4 ng/mL, the “Hydromorphone Cmax, Percent HM relative to hydrocodone bitartrate” value [14] was 77% and the “Mean hydrocodone plus hydromorphone concentration” value [15] was 0 ng/mL. The Mean hydromorphone concentration [15] was 0 ng/mL, the Mean hydrocodone concentration (oral, 5 mg/kg hydrocodone base content, 0 Hours) was 0 ng/mL and the Mean hydrocodone concentration (oral, 5 mg/kg hydrocodone base content, 0.1 Hours) was 26.6 ng/mL. The Mean hydrocodone concentration (oral, 5 mg/kg hydrocodone base content, 0.5 Hours) was 22.5 ng/mL, the Mean hydrocodone concentration (oral, 5 mg/kg hydrocodone base content, 1.0 Hours) was 15.1 ng/mL and the Mean hydrocodone concentration (oral, 5 mg/kg hydrocodone base content, 2.0 Hours) was 10.3 ng/mL. The Mean hydrocodone concentration (oral, 5 mg/kg hydrocodone base content, 4.0 Hours) was 3.6 ng/mL, the “Mean hydrocodone plus hydromorphone concentration” value [16] was 27.1 ng/mL and the Mean hydromorphone concentration [16] was 0.49 ng/mL. The “Mean hydrocodone plus hydromorphone concentration” value [17] was 32.9 ng/mL, the Mean hydromorphone concentration [17] was 10.41 ng/mL and the “Mean hydrocodone plus hydromorphone concentration” value [18] was 19.9 ng/mL. The Mean hydromorphone concentration [18] was 4.82 ng/mL, the “Mean hydrocodone plus hydromorphone concentration” value [19] was 13.5 ng/mL and the Mean hydromorphone concentration [19] was 3.17 ng/mL. The “Mean hydrocodone plus hydromorphone concentration” value [20] was 4.7 ng/mL, the Mean hydromorphone concentration [20] was 1.07 ng/mL and the “Percent HC + HM (AUC)” value (oral, 5 mg/kg) was 20%. For the same compound, the “Percent HC + HM (Cmax)” value (oral, 5 mg/kg) was 4%, the “Hydrocodone AUC” value [21] was 135.0 and the “Hydrocodone Cmax” value [21] was 41.4 ng/mL. The “Hydrocodone plus hydromorphone Cmax” value [21] was 49.4 ng/mL, the “Hydromorphone AUC, Percent HM relative to hydrocodone bitartrate” value [21] was 33% and the “Hydromorphone Cmax” value [21] was 16.2 ng/mL. The “Hydromorphone Cmax, Percent HM relative to hydrocodone bitartrate” value [21] was 37%, the “Mean hydrocodone plus hydromorphone concentration” value [22] was 0 ng/mL and the Mean hydromorphone concentration [22] was 0 ng/mL. It also gave a Mean hydrocodone concentration (oral, 25 mg/kg hydrocodone base content, 0 Hours) of 0 ng/mL, a Mean hydrocodone concentration (oral, 25 mg/kg hydrocodone base content, 0.1 Hours) of 41.4 ng/mL and a Mean hydrocodone concentration (oral, 25 mg/kg hydrocodone base content, 0.5 Hours) of 23.3 ng/mL. It also gave a Mean hydrocodone concentration (oral, 25 mg/kg hydrocodone base content, 1.0 Hours) of 31.0 ng/mL, a Mean hydrocodone concentration (oral, 25 mg/kg hydrocodone base content, 2.0 Hours) of 43.9 ng/mL and a Mean hydrocodone concentration (oral, 25 mg/kg hydrocodone base content, 4.0 Hours) of 25.0 ng/mL. The “Mean hydrocodone plus hydromorphone concentration” value [23] was 49.4 ng/mL, the Mean hydromorphone concentration [23] was 8.00 ng/mL and the “Mean hydrocodone plus hydromorphone concentration” value [24] was 33.7 ng/mL. For the same compound, the Mean hydromorphone concentration [24] was 10.35 ng/mL, the “Mean hydrocodone plus hydromorphone concentration” value [25] was 43.7 ng/mL and the Mean hydromorphone concentration [25] was 12.70 ng/mL. For the same compound, the “Mean hydrocodone plus hydromorphone concentration” value [26] was 60.1 ng/mL, the Mean hydromorphone concentration [26] was 16.22 ng/mL and the “Mean hydrocodone plus hydromorphone concentration” value [27] was 34.0 ng/mL. The Mean hydromorphone concentration [27] was 8.98 ng/mL, the “Percent HC + HM (AUC)” value (oral, 25 mg/kg) was 32% and the “Percent HC + HM (Cmax)” value (oral, 25 mg/kg) was 10%. The “Peak levels and bioavailability” value (rat, oral, 5 mg/kg) was “substantially decreased”.
